In series [1] the target is Fluorogenic Homopolymer (DP=20) of NorGly-E(EDANS)…(dabcyl)GSGSG-NH2. Nature of the series: cell-based or functional assay.
The target of series [2] is NorGly-E(EDANS)…(dabcyl)GSGSG-NH2. Nature of the series: cell-based or functional assay.
Series [3] concerns T1, Thrombin Homopolymer (10 mer).
T1 sequence: GALVPRGSGERDG

For series [4], the system named is T2, Thrombin Homopolymer (20 mer).
T2 sequence: GALVPRGSGERDG

Series [5] has as its system T3, Thrombin Homopolymer (30 mer).
T3 sequence: GALVPRGSGERDG

The subject of series [6] is T4, thrombin substrate monomer (norbornene-GALVPRGSGERDG-NH2).
T4 sequence: GALVPRGSGERDG

With Pronase (Roche, cat. #10165921001), the Homopolymer V0 (initial velocity of proteolysis) in series [1] worked out at 0.0021 µM/min. Besides, in series [2], the Monomer V0 (initial velocity of proteolysis) came out at 0.2 µM/min and the fold faster initial rate (V0) of the monomer than of the homopolymer lay in the range of 17 to 95 fold.
For thrombin (Sigma, cat. #T6884-100UN), the “proteolytic cleavage by RP-HPLC” value is reported as “homopolymers at several degrees of polymerization were resistant to cleavage relative to the monomer, albeit not completely shut off from proteolysis” in series [3]; “homopolymers at several degrees of polymerization were resistant to cleavage relative to the monomer, albeit not completely shut off from proteolysis” in series [4]; “homopolymers at several degrees of polymerization were resistant to cleavage relative to the monomer, albeit not completely shut off from proteolysis” in series [5]; “the monomeric peptide was readily degraded by thrombin” in series [6].

The values above are taken from patent US20210283054A1.
